For this experiment, the target named is recombinant streptokinase from Streptococcus pyrogenes (so in the source) (Streptococcus pyrogenes (so in the source)). Nature of the experiment: SPR (Biacore T200), SK on Ni2+-NTA chip, 1:1 Langmuir model. On the technique in general: In SPR one partner is held on a chip, and binding of the other changes the refractive index at the surface.

This is an account of results in US20220267751A1.

pKd: −log10 of the molar value.

Sequence of native plasmin (purchased from Haematologic Technologies) (P00747 97-580 limits assumed): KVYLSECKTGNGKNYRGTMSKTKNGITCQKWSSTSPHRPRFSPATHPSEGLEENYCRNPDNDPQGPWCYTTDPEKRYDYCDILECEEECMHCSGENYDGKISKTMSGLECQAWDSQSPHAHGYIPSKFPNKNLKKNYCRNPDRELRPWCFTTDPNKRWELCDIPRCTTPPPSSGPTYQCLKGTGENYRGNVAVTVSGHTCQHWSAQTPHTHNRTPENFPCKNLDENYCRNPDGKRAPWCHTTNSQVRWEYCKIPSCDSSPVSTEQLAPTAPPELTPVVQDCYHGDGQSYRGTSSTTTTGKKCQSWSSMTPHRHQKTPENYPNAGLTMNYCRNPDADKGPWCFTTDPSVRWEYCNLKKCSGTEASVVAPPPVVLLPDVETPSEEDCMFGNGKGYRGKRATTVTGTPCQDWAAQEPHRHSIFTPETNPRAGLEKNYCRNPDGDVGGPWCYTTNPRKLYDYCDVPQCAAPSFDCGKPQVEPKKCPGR
Sequence of native plasmin (purchased from Haematologic Technologies) (P00747 581-810 limits assumed): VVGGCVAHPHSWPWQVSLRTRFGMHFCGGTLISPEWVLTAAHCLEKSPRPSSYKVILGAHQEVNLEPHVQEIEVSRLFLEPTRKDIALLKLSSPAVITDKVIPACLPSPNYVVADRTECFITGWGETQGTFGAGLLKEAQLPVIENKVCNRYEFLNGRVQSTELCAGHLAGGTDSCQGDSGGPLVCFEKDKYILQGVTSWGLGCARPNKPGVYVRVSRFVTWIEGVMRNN
Sequence of recombinant plasminogen (P00747 20-810 limits assumed): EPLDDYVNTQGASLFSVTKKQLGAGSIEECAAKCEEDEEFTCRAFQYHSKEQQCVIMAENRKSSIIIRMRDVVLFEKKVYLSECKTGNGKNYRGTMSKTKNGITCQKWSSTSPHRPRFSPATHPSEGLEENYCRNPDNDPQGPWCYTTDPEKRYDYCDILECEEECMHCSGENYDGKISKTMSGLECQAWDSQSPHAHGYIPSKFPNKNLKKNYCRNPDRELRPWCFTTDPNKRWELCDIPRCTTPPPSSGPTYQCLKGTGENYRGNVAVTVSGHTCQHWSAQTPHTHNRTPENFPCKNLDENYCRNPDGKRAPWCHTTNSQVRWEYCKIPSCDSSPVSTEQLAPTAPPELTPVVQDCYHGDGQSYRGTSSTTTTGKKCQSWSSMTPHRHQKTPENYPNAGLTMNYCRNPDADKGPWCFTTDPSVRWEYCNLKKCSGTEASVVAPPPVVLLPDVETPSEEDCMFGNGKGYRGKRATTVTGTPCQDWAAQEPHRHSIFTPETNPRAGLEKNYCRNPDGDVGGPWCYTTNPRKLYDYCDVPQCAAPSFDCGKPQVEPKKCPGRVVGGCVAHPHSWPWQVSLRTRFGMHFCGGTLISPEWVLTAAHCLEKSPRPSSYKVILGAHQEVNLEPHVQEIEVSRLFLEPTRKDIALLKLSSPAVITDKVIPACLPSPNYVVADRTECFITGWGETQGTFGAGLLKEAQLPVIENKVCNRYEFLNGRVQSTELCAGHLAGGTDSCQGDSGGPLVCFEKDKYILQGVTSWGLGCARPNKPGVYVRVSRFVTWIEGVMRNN
Sequence of native plasminogen (purchased from Merck, purified from human plasma) (P00747 20-810 limits assumed): as above

As for “recombinant plasminogen (from UniProt P00747 20-810)”, the pKd – broadly, −log10 of the Kd, conventionally taken in molar units – was 8.85; the koff – broadly, the rate constant with which the complex falls apart – was 0.00036 s⁻¹; the kon (as a rule, a measure of how fast the partners come together) amounted to 270000 M⁻¹ s⁻¹.
With “native plasmin (purchased from Haematologic Technologies) (from UniProt P00747 97-580; P00747 581-810) (enzyme)”, the pKd was 9.48, the koff stood at 0.0023 s⁻¹ and the kon is 7.1e+06 M⁻¹ s⁻¹.
The matching figures for “native plasminogen (purchased from Merck, purified from human plasma) (from UniProt P00747 20-810)”: 8.85, 0.00032 s⁻¹ and 230000 M⁻¹ s⁻¹.
